Experiment [1] deals with acetylcholine receptor. Nature of the experiment: SPR, AchR immobilised on chip, peptide at 10 uM.
Experiment [2] addresses acetylcholine receptor. As to the kind of experiment: SPR, AchR immobilised on CM5 chip, peptide at 10 uM. In general terms: In SPR one partner is held on a chip, and binding of the other changes the refractive index at the surface.

B1: 6mer-2-291 (peptide)
peptide: RRYRKR
Molecule B1 came in with a Binding affinity with acetylcholine receptor [1] of 154 RU.

B2: 6mer-2-297 (peptide)
peptide: RSLSRR
As to B2, the Binding affinity with acetylcholine receptor [1] came out at 139 RU.

B3: 6mer-2-316 (peptide)
peptide: KGIRRR
In the case of B3, in the experiment with acetylcholine receptor [1], the Binding affinity is 139 RU.

B4: 6mer-2-306 (peptide)
peptide: RQFQKR
The molecule B4 gave a Binding affinity with acetylcholine receptor [1] of 141 RU.

B5: 6mer-2-300 (peptide)
peptide: RWRLKK
B5 gave a Binding affinity with acetylcholine receptor [1] of 153 RU.

B6: 6mer-2-279 (peptide)
peptide: KSLQRK
In the experiment with acetylcholine receptor [1], B6 yielded a Binding affinity of 148 RU.

B7: 6mer-2-287 (peptide)
peptide: RLYLKR
As for B7, in the experiment with acetylcholine receptor [1], the Binding affinity amounted to 124 RU.

B8: 6mer-2-275 (peptide)
peptide: KLITRR
The molecule B8 showed a Binding affinity with acetylcholine receptor [1] of 135 RU.

B9: 6mer-2-308 (peptide)
peptide: KGISKR
Consider B9, for which, in the experiment with acetylcholine receptor [1], the Binding affinity is 148 RU.

B10: 6mer-2-278 (peptide)
peptide: RQIQKK
As to B10, in the experiment with acetylcholine receptor [1], the Binding affinity is 135 RU.

B11: 6mer-2-271 (peptide)
peptide: RLFQKK
Regarding B11, the Binding affinity with acetylcholine receptor [1] amounted to 131 RU.

B12: 6mer-2-318 (peptide)
peptide: RGIQKK
Take B12: in the experiment with acetylcholine receptor [1], the Binding affinity came to 145 RU.

B13: 6mer-2-314 (peptide)
peptide: KQYCKK
In the experiment with acetylcholine receptor [1], B13 returned a Binding affinity of 127 RU.

B14: 6mer-2-283 (peptide)
peptide: KLISKR
Molecule B14 showed a Binding affinity in the experiment with acetylcholine receptor [1] of 148 RU.

B15: 6mer-2-295 (peptide)
peptide: KVRYKK
As to B15, the Binding affinity in the experiment with acetylcholine receptor [1] amounted to 145 RU.

B16: 6mer-2-293 (peptide)
peptide: KQQSKR
Consider B16, for which, in the experiment with acetylcholine receptor [1], the Binding affinity amounted to 153 RU.

B17: 6mer-2-310 (peptide)
peptide: KLFQRK
B17 registered a Binding affinity with acetylcholine receptor [1] of 149 RU.

B18: 6mer-1-467 (peptide)
peptide: KRGYQK
Consider B18, for which the Binding affinity (RU) with acetylcholine receptor [2] was determined as 121 RU.

B19: 6mer-2-309 (peptide)
peptide: KRRRRR
In the case of B19, the Binding affinity in the experiment with acetylcholine receptor [1] was determined as 151 RU.

B20: 6mer-2-304 (peptide)
peptide: KWFYRK
In the experiment with acetylcholine receptor [1], B20 returned a Binding affinity of 144 RU.

B21: 6mer-2-284 (peptide)
peptide: KLRSKR
Take B21: in the experiment with acetylcholine receptor [1], the Binding affinity came to 151 RU.

B22: 6mer-2-303 (peptide)
peptide: KVFTKR
Molecule B22 had a Binding affinity with acetylcholine receptor [1] of 126 RU.

B23: 6mer-2-272 (peptide)
peptide: KWRSRK
B23: the Binding affinity in the experiment with acetylcholine receptor [1] was determined as 154 RU.

B24: 6mer-2-313 (peptide)
peptide: RWRTKR
Regarding B24, the Binding affinity with acetylcholine receptor [1] came out at 154 RU.

B25: 6mer-2-307 (peptide)
peptide: RLRSKK
For the molecule B25, in the experiment with acetylcholine receptor [1], the Binding affinity came to 141 RU.

B26: 6mer-2-289 (peptide)
peptide: RLLQKK
Molecule B26 yielded a Binding affinity in the experiment with acetylcholine receptor [1] of 146 RU.

B27: 6mer-2-286 (peptide)
peptide: KRRYKK
B27 yielded a Binding affinity in the experiment with acetylcholine receptor [1] of 139 RU.

B28: 6mer-2-281 (peptide)
peptide: KGQRKK
In the case of B28, the Binding affinity with acetylcholine receptor [1] was determined as 149 RU.

B29: 6mer-2-285 (peptide)
peptide: RRIQRR
B29 showed a Binding affinity with acetylcholine receptor [1] of 142 RU.

B30: 6mer-2-282 (peptide)
peptide: RQQYRK
In the experiment with acetylcholine receptor [1], B30 showed a Binding affinity of 151 RU.

B31: 6mer-2-301 (peptide)
peptide: RQVRKR
B31 gave a Binding affinity in the experiment with acetylcholine receptor [1] of 122 RU.

B32: 6mer-2-274 (peptide)
peptide: KLRTKR
Molecule B32 had a Binding affinity in the experiment with acetylcholine receptor [1] of 148 RU.

B33: 6mer-2-280 (peptide)
peptide: KSIYRR
For B33, in the experiment with acetylcholine receptor [1], the Binding affinity is 153 RU.

B34: 6mer-2-292 (peptide)
peptide: RQLCKR
Regarding B34, the Binding affinity in the experiment with acetylcholine receptor [1] turned out to be 121 RU.

B35: 6mer-2-296 (peptide)
peptide: KWYRRK
With B35, the Binding affinity in the experiment with acetylcholine receptor [1] came to 135 RU.

B36: 6mer-2-273 (peptide)
peptide: KLRQRR
Regarding B36, the Binding affinity in the experiment with acetylcholine receptor [1] came out at 131 RU.

B37: 6mer-2-299 (peptide)
peptide: RWYYRK
In the experiment with acetylcholine receptor [1], B37 showed a Binding affinity of 141 RU.

B38: 6mer-2-317 (peptide)
peptide: RGLYKR
Molecule B38 registered a Binding affinity with acetylcholine receptor [1] of 135 RU.

B39: 6mer-2-277 (peptide)
peptide: RLRYRK
B39 registered a Binding affinity with acetylcholine receptor [1] of 128 RU.

B40: 6mer-2-312 (peptide)
peptide: KWRTKR
In turn, B40 returned a Binding affinity with acetylcholine receptor [1] of 121 RU.

B41: 6mer-2-315 (peptide)
peptide: RRQRRR
In the experiment with acetylcholine receptor [1], B41 yielded a Binding affinity of 139 RU.

B42: 6mer-2-276 (peptide)
peptide: RLVCRK
Take B42: in the experiment with acetylcholine receptor [1], the Binding affinity stood at 153 RU.

B43: 6mer-2-305 (peptide)
peptide: KQFYKK
The molecule B43 came in with a Binding affinity with acetylcholine receptor [1] of 154 RU.

B44: 6mer-2-269 (peptide)
peptide: KWVQRK
As to B44, the Binding affinity with acetylcholine receptor [1] worked out at 123 RU.

B45: 6mer-2-294 (peptide)
peptide: KLYYRR
Molecule B45 came in with a Binding affinity in the experiment with acetylcholine receptor [1] of 135 RU.

B46: 6mer-2-319 (peptide)
peptide: RSRQRK
For B46, in the experiment with acetylcholine receptor [1], the Binding affinity was determined as 137 RU.

B47: 6mer-2-270 (peptide)
peptide: KSRLRR
Consider B47, for which, in the experiment with acetylcholine receptor [1], the Binding affinity was found to be 148 RU.

B48: 6mer-2-302 (peptide)
peptide: KQICKK
In turn, B48 yielded a Binding affinity in the experiment with acetylcholine receptor [1] of 148 RU.

B49: 6mer-2-298 (peptide)
peptide: KWICKK
With B49, in the experiment with acetylcholine receptor [1], the Binding affinity was 149 RU.

B50: 6mer-2-311 (peptide)
peptide: KVVTRK
For B50, in the experiment with acetylcholine receptor [1], the Binding affinity stood at 147 RU.

B51: 6mer-2-290 (peptide)
peptide: RQLYRK
In the experiment with acetylcholine receptor [1], B51 displayed a Binding affinity of 135 RU.

B52: 6mer-2-288 (peptide)
peptide: KSRLRK
Regarding B52, in the experiment with acetylcholine receptor [1], the Binding affinity turned out to be 122 RU.

(Values after patent US20250011363A1, “OPTIMIZED SHORTENED PEPTIDE THAT BINDS TO ACETYLCHOLINE RECEPTOR, AND USE THEREOF” (SKINMED CO., LTD., priority 2021, published 2025).)
